Source: the supplement of paper PMC6755084

B1: F1*; the commonest letter at each place (parent)
chain: GAGACCGCAACTGAAAAGTTGTTATCACTTGTCGTAAGACACTTTGGATGGGTTGAAGTTCTGCACGTAGAAGCAAAAGGC

Variants of: B1
Experiment: fraction ligated after 30 min (ligated reads / total reads); higher = more ligase activity
Conditions: with F1*sub RNA substrate (template-directed ligation), 42 °C
Procedure, shortened: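 The ligase ribozyme variants were produced by PCR amplification of oligo-pool templates, T7 transcription and purification on gel. Their ligated and unligated forms were gel-separated, then reverse transcribed with barcoded primers before MiSeq sequencing. Core bases were filtered at a quality of ≥20, and fraction ligated per variant was ligated reads over total reads.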

Q: For GAGACCGCAACTGAAAAGTTGTTATCACTTGTCGTAAGACACTTTGGATGGGTTTGCGTTCTGCACGTAGAAGCAAAAGGC [G55T A56G A57C], which fraction ligated is on record?
A: 0.0609

Q: Which fraction ligated does the source give for GAGACCGCAACTGAAAAGTTGTTATCACTTGTCGTAAGACACTTTGGATGGTTTGAAGTTCTGCACGTAGAAGCAAAAGGC [G52T] here?
A: 0.695

Q: GAGACCGCAACTGAAAAGTTGTTATCACTTGTCGTAAGACACTTTGGATGGCTTGAAGTTCTGCACGTAGAAGCAAAAGGC [G52C] was tested. Which fraction ligated did it give?
A: 0.726

Q: With GAGACCGCAACTGAAAAGTTGTTATCACTTGTCGTAAGACACTTTGGATGGATTGAAGTTCTGCACGTAGAAGCAAAAGGC [G52A] as the variant, how does the fraction ligated read?
A: 0.827

Q: Which fraction ligated does the source give for GAGACCGCAACTGAAAAGTTGTTATCACTTGTCGTAAGACACTTTGGATGGGTTCGGGTTCTGCACGTAGAAGCAAAAGGC [G55C A56G A57G] here?
A: 0.0448

Q: For GAGACCGCAACTGAAAAGTTGTTATCACTTGTCGTAAGACACTTTGGATGGGTTCGTGTTCTGCACGTAGAAGCAAAAGGC [G55C A56G A57T], which fraction ligated is on record?
A: 0.0232

Q: GAGACCGCAACTGAAAAGTTGTTATCACTTGTCGTAAGACACTTTGGATGGGTTCGCGTTCTGCACGTAGAAGCAAAAGGC [G55C A56G A57C] was tested. Which fraction ligated did it give?
A: 0.104

Q: With GAGACCGCAACTGAAAAGTTGTTATCACTTGTCGTAAGACACTTTGGATGGGATGAAGTTCTGCACGTAGAAGCAAAAGGC [T53A] as the variant, how does the fraction ligated read?
A: 0.834

Q: With GAGACCGCAACTGAAAAGTTGTTATCACTTGTCGTAAGACACTTTGGATGGGCTGAAGTTCTGCACGTAGAAGCAAAAGGC [T53C] as the variant, how does the fraction ligated read?
A: 0.849

Q: For GAGACCGCAACTGAAAAGTTGTTATCACTTGTCGTAAGACACTTTGGATGGGGTGAAGTTCTGCACGTAGAAGCAAAAGGC [T53G], which fraction ligated is on record?
A: 0.831

Q: With GAGACCGCAACTGAAAAGTTGTTATCACTTGTCGTAAGACACTTTGGATGGGTTGGAGTTCTGCACGTAGAAGCAAAAGGC [A56G] as the variant, how does the fraction ligated read?
A: 0.781

Q: GAGACCGCAACTGAAAAGTTGTTATCACTTGTCGTAAGACACTTTGGATGGGTTGCAGTTCTGCACGTAGAAGCAAAAGGC [A56C] was tested. Which fraction ligated did it give?
A: 0.767

Q: How did the fraction ligated turn out when GAGACCGCAACTGAAAAGTTGTTATCACTTGTCGTAAGACACTTTGGATGGGTTACGGTTCTGCACGTAGAAGCAAAAGGC [G55A A56C A57G] was run?
A: 0.0754

Q: With GAGACCGCAACTGAAAAGTTGTTATCACTTGTCGTAAGACACTTTGGATGGGTTACCGTTCTGCACGTAGAAGCAAAAGGC [G55A A56C A57C] as the variant, how does the fraction ligated read?
A: 0.0438

Q: With GAGACCGCAACTGAAAAGTTGTTATCACTTGTCGTAAGACACTTTGGATGGGTTACTGTTCTGCACGTAGAAGCAAAAGGC [G55A A56C A57T] as the variant, how does the fraction ligated read?
A: 0.151

Q: With GAGACCGCAACTGAAAAGTTGTTATCACTTGTCGTAAGACACTTTGGATGGGTTCTCGTTCTGCACGTAGAAGCAAAAGGC [G55C A56T A57C] as the variant, how does the fraction ligated read?
A: 0.00477

Q: For GAGACCGCAACTGAAAAGTTGTTATCACTTGTCGTAAGACACTTTGGATGGGTTCTGGTTCTGCACGTAGAAGCAAAAGGC [G55C A56T A57G], which fraction ligated is on record?
A: 0.0294

Q: How did the fraction ligated turn out when GAGACCGCAACTGAAAAGTTGTTATCACTTGTCGTAAGACACTTTGGATGGGTTCTTGTTCTGCACGTAGAAGCAAAAGGC [G55C A56T A57T] was run?
A: 0.0179

Q: GAGACCGCAACTGAAAAGTTGTTATCACTTGTCGTAAGACACTTTGGATGGGTTGGCGTTCTGCACGTAGAAGCAAAAGGC [A56G A57C] was tested. Which fraction ligated did it give?
A: 0.748

Q: With GAGACCGCAACTGAAAAGTTGTTATCACTTGTCGTAAGACACTTTGGATGGGTTTAGGTTCTGCACGTAGAAGCAAAAGGC [G55T A57G] as the variant, how does the fraction ligated read?
A: 0.791

Q: With GAGACCGCAACTGAAAAGTTGTTATCACTTGTCGTAAGACACTTTGGATGGGTTTACGTTCTGCACGTAGAAGCAAAAGGC [G55T A57C] as the variant, how does the fraction ligated read?
A: 0.717

Q: With GAGACCGCAACTGAAAAGTTGTTATCACTTGTCGTAAGACACTTTGGATGGGTTTATGTTCTGCACGTAGAAGCAAAAGGC [G55T A57T] as the variant, how does the fraction ligated read?
A: 0.794

Q: How did the fraction ligated turn out when GAGACCGCAACTGAAAAGTTGTTATCACTTGTCGTAAGACACTTTGGATGGGTTAATGTTCTGCACGTAGAAGCAAAAGGC [G55A A57T] was run?
A: 0.801

Q: For GAGACCGCAACTGAAAAGTTGTTATCACTTGTCGTAAGACACTTTGGATGGGTTAAGGTTCTGCACGTAGAAGCAAAAGGC [G55A A57G], which fraction ligated is on record?
A: 0.833

Q: For GAGACCGCAACTGAAAAGTTGTTATCACTTGTCGTAAGACACTTTGGATGGGTTAACGTTCTGCACGTAGAAGCAAAAGGC [G55A A57C], which fraction ligated is on record?
A: 0.786

Q: GAGACCGCAACTGAAAAGTTGTTATCACTTGTCGTAAGACACTTTGGATGCGTTGAAGTTCTGCACGTAGAAGCAAAAGGC [G51C] was tested. Which fraction ligated did it give?
A: 0.812

Q: For GAGACCGCAACTGAAAAGTTGTTATCACTTGTCGTAAGACACTTTGGATGTGTTGAAGTTCTGCACGTAGAAGCAAAAGGC [G51T], which fraction ligated is on record?
A: 0.792

Q: With GAGACCGCAACTGAAAAGTTGTTATCACTTGTCGTAAGACACTTTGGATGAGTTGAAGTTCTGCACGTAGAAGCAAAAGGC [G51A] as the variant, how does the fraction ligated read?
A: 0.797

Q: Which fraction ligated does the source give for GAGACCGCAACTGAAAAGTTGTTATCACTTGTCGTAAGACACTTTGGATGGGTTCACGTTCTGCACGTAGAAGCAAAAGGC [G55C A57C] here?
A: 0.412

Q: How did the fraction ligated turn out when GAGACCGCAACTGAAAAGTTGTTATCACTTGTCGTAAGACACTTTGGATGGGTTCAGGTTCTGCACGTAGAAGCAAAAGGC [G55C A57G] was run?
A: 0.773

Q: Which fraction ligated does the source give for GAGACCGCAACTGAAAAGTTGTTATCACTTGTCGTAAGACACTTTGGATGGGTTCATGTTCTGCACGTAGAAGCAAAAGGC [G55C A57T] here?
A: 0.632

Q: Which fraction ligated does the source give for GAGACCGCAACTGAAAAGTTGTTATCACTTGTCGTAAGACACTTTGGATGGGTTATGGTTCTGCACGTAGAAGCAAAAGGC [G55A A56T A57G] here?
A: 0.143

Q: How did the fraction ligated turn out when GAGACCGCAACTGAAAAGTTGTTATCACTTGTCGTAAGACACTTTGGATGGGTTATCGTTCTGCACGTAGAAGCAAAAGGC [G55A A56T A57C] was run?
A: 0.0139

Q: Which fraction ligated does the source give for GAGACCGCAACTGAAAAGTTGTTATCACTTGTCGTAAGACACTTTGGATGGGTTATTGTTCTGCACGTAGAAGCAAAAGGC [G55A A56T A57T] here?
A: 0.161
